Results from EP4410371A1 (Max-Planck-Gesellschaft zur Förderung der Wissenschaften …, dated 2024).
Residue numbers refer to the chain shown, from its start.

B1: VHH antibody Ma7A07 (VHH)
VHH: QVQLVESGGGLVQPGGSLRLSCAASGFTLGDYTLGWFRQAPGKQREGVSSIASSALSIYIADSVKGRFTISRDDAKNTIYLHMNNLKPEDTGVYYCARGVDSWRWVPSAMDLWGKGTLVTVSS
B2: VHH antibody Ma7A08 (VHH)
VHH: B1 VHH with R19T, A55V, I58V
B3: VHH antibody Ma7B03 (VHH)
VHH: B1 VHH with G30S, D31N, T33Y, L34V, A52G, A55D, D74N, E89D, V100T, L118Q
B4: VHH antibody Ma7C11 (VHH)
VHH: QVQLVESGGGLVRAGGSLRLSCAASGSISSVNGMGWFRQAPGKERLFVAQVSLLDSSTYYADSVKGRFTISRDDAKNTMYLQMNNVRPEETAVYYCAATKLRIGTAFSSEYDYWGQGTQVTVSS
B5: VHH antibody Ma8E03 (VHH)
VHH: QVQLVESGGGLVHPGGSLRLSCAASGSSLDHYVIGWFRQVPGKEREGVSCISRSGGSTNYADSVKGRFTVSRDNVKNMVYLQMNSLEPEDSAEYYCAAQRNLGNFCVLGWLEYDDWGQGTQVTVSS
B6: VHH antibody Ma8G02 (VHH)
VHH: B5 VHH with H13L, V40Y, L111V
B7: VHH antibody Ma8H03 (VHH)
VHH: QVQLVESGGGLVHPGGSLRLSCAASGSSLDHYVIGWFRQVPGKQREGISCISSGGSTNYADSVKGRFTVSRDNVKSTVYLQMNSLAPDDSAEYYCAAQRNLGNFCVLGWLEYDDWGQGTQVTVSS
B8: VHH antibody Ma8A05 (VHH)
VHH: QVQLVESGGGLVQPGGSLRLSCAASPASGFTLDLYTIAWFLQAPGKEREGVSAISLSDEITYYSDAVKGRFTISRDSAKNTVFLQMDRLKPEDTGVYYCAIGAFDFILKEADADYWGQGTQVTVSS
B9: VHH antibody Ma8D05 (VHH)
VHH: B8 VHH with A66T
B10: VHH antibody Ma8D07 (VHH)
VHH: QVQLVESGGGLVQPGGSLRLSCAASESIYKLNAMGWYRQAPGKELELVTTISSGGSTFYTDPVKGRFTISTDNAKNTVYLQMRSLKPEDTAMYYCAANPTYNHYSARGQGTQVTVSS
B11: VHH antibody Ma8D08 (VHH)
VHH: B10 VHH with L11F, P14A
B12: VHH antibody Ma7F02 (VHH)
VHH: QVQLVESGGGLVQAGGSLRLSCTVSGSIDSLHTMGWFRQAPGKKRDFVAVVSWSGGNTYYPDYAKGRFTISRDNTKNTVYLQMNSLKPEDTAIYYCAAESGSGNYWKIWEHEFDSWGQGTQVTVSS
B13: VHH antibody Ma7B12 (VHH)
VHH: B1 VHH with D74N, I79V, V100I, S102N, L118Q
B14: VHH antibody Ma7B01 (VHH)
VHH: QVQLVESGGGLVQAGDSLSLSCAASGRTFSNYAMGWFRQAPGKERHFVAVINQIGDSTWYPDFAKGRFTISRDNAKNTLYLQMNSLKPEDTAVYYCAATDPRSYWRIWPHEYGYWGQGTQVTVSS
B15: VHH antibody Ma7E01 (VHH)
VHH: B14 VHH with L11S, A23V, G26E, Q53P, D56E, S57E, P109E, Y112F, G113D
B16: VHH antibody Ma7C02 (VHH)
VHH: QVQLVESGGGLVQAGGSLRLSCAASGRTFSDYAMGWFRQAAGKDRDFVAVITRSGDSTYYPDSTKGRFTISRDNAKNTMYLQMNSLKPEDTARYYCAATDPTNYWRIWEHEFDYWGQGTQVTVSS
B17: VHH antibody Ma7D06 (VHH)
VHH: QVQLVESGGGLVQAGGSLRLSCAASGSISGIDTMAWFRQIPGKDREFVAVIKWAAGSTWYPDFVKGRFTVSRDNAKNMVYLQMDSVKPEDTAIYYCAAAAGEKYYYRLFPYEYDYWGQGTQVTVSS

molecular target: T1, Cys-HLA used for Octet assays following biotinylation at the N-terminal ectopic cysteine (Staphylococcus aureus, UniProt P09616 27-319); test: not given

Binder | Kd [nM]
B1 | ≤ 0.01
B2 | ≤ 0.01
B3 | ≤ 0.01
B4 | 0.3
B5 | ≤ 0.01
B6 | ≤ 0.01
B7 | ≤ 0.01
B8 | 0.6
B9 | 1
B10 | 0.8
B11 | 1
B12 | 0.04
B13 | ≤ 0.01
B14 | 0.05
B15 | ≤ 0.01
B16 | 0.09
B17 | 0.06

molecular target: T1, Cys-HLA used for Octet assays following …; test: BLI (Octet), biotinylated HLA on streptavidin sensors

Binder | Kd [nM]
B12 | ~0.05
